According to CN101538329A:

Columns and labels:
[1] = molecular target: β-淀粉样多肽 Aβ1-42 (beta-amyloid peptide, purified) (human) (UniProt P05067); test: repeated phage ELISA on coated Aβ, OD490, against negative control
[2] = molecular target: β-淀粉样多肽 Aβ1-42 (beta-amyloid peptide, purified) (human) (UniProt P05067); test: phage ELISA on coated Aβ, OD490, against negative control (2% MPBS)
[3] = molecular target: β-淀粉样多肽 Aβ1-42 (beta-amyloid peptide, purified) (human) (UniProt P05067); test: ELISA on coated Aβ, whole-cell protein fraction; induced against uninduced strain
[4] = molecular target: β-淀粉样多肽 Aβ1-42 (beta-amyloid peptide, purified) (human) (UniProt P05067); test: ELISA of soluble scFv fractions on coated Aβ, anti-c-myc detection; induced against uninduced strain
[5] = molecular target: β-淀粉样多肽 Aβ1-42 (beta-amyloid peptide, purified) (human) (UniProt P05067); test: ELISA on coated Aβ, culture supernatant fraction; induced against uninduced strain

UniProt P05067, sequence (P05067 672-713 limits assumed): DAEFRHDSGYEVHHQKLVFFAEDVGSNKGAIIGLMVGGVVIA

B1: A10 单克隆噬菌体抗体 (phage-displayed human anti-Aβ scFv, clone A10) (scFv, part only; not given: linker, tag and phage fusion, not shown: small tags and cut ends; large carriers)
scFv (part 1 of 2), part: EVQLVQSGAEVKRPGSSVNVSCKASGGTLSNYGLSWVRQAPGQGLEWMGGIIPSFGPANYAQIFQGRVTITADESTNTAYMELRSLTSDDTAVYYCAREGGVGVATTYWLDPWGQGTTVTVSS
scFv (part 2 of 2), part: HFMLTQPHSVSESPGKTVTISCTRSSGSIASTYVHWYQQRPGTSPTTVIYEDNRRHSRVPDRFSGSIDSSSNSASLTISGLKTEDEGDYYCQSYDSTNAWVFGGGTKVTVLG
**Q.** For B1, which ELISA A值 fold over negative control [1] is on record?
**A.** > 5 fold

**Q.** And the ELISA A值 fold over negative control [2]?
**A.** 2 fold

B2: F2 单克隆噬菌体抗体 (phage-displayed human anti-Aβ scFv, clone F2) (scFv, part only; not given: linker, tag and phage fusion, not shown: small tags and cut ends; large carriers)
scFv (part 1 of 2), part: B1 scFv (part 1 of 2), part
scFv (part 2 of 2), part: B1 scFv (part 2 of 2), part
**Q.** With B2 as the binder, how does the ELISA A值 fold over negative control [1] read?
**A.** > 5 fold

**Q.** What about the ELISA A值 fold over negative control [2] of the same binder?
**A.** > 2 fold

B3: F2 可溶性抗Aβ scFv (soluble scFv of clone F2 expressed in E. coli HB2151) (scFv, V domains shown, not shown: small tags and cut ends)
VH: B1 scFv (part 1 of 2), part
VL: B1 scFv (part 2 of 2), part
**Q.** What does the source list for B3?
**A.** ELISA A值 fold of induced over uninduced strain [3]: > 5 fold; ELISA A值 fold of induced over uninduced strain [4]: > 2 fold; ELISA A值 fold of induced over uninduced strain [5]: > 5 fold

B4: A10 可溶性抗Aβ scFv (soluble scFv of clone A10 expressed in E. coli HB2151) (scFv, V domains shown, not shown: small tags and cut ends)
VH: B1 scFv (part 1 of 2), part
VL: B1 scFv (part 2 of 2), part
**Q.** Which results are given for B4?
**A.** ELISA A值 fold of induced over uninduced strain [3]: > 5 fold; ELISA A值 fold of induced over uninduced strain [4]: > 2 fold; ELISA A值 fold of induced over uninduced strain [5]: > 5 fold
